Reference: US20130131319A1 (Chugai, published 2013)
Values belong to the binder of their own block, whether it stands above or below them.

Key:
[1] = molecular target: T1, soluble human FcRn (complex of FcRn and beta2-microglobulin) (human, UniProt P55899 24-297; P61769 21-119); test: Biacore pH 7.0 (Example 9 method)
T1 construct: Secreted from HEK293H
Description: (§1) The binding between antibody and human FcRn was kinetically analyzed using Biacore T100 (GE Healthcare). An appropriate amount of protein L (ACTIGEN) was immobilized onto Sensor chip CM4 (GE Healthcare) by the amine-coupling method, and the chip was allowed to capture an antibody of interest. Then, diluted FcRn solutions and running buffer as a reference solution were injected to allow for human FcRn to interact with the antibody captured on the sensor chip. The running buffer used comprised 50 mmol/l sodium phosphate, 150 mmol/l NaCl, and 0.05% (w/v) Tween20 (pH 7.0). FcRn was diluted using each buffer. The chip was regenerated using 10 mmol/l glycine-HCl (pH 1.5). Assays were carried out at 25 degrees C.
(§2) KD (M) of each antibody was derived from the sensorgram data using Biacore T100 Evaluation Software (GE Healthcare), which simultaneously fits the association and dissociation phases of the sensorgrams and globally fits all curves in the working set. Sensorgrams were fit to 1:1 binding model, the “Langmuir binding” model, supplied by Biacore T100 Evaluation Software. For some of the binding interactions, KD was derived by nonlinear regression analysis of plots of Req, the equilibrium binding response, versus the log of the analyte concentration using an equilibrium-based approach.

[2] = molecular target: T1, soluble human FcRn (complex of FcRn and …); test: Biacore pH 7.0 (Example 9 method); remark: listed apart in the source
Description: as §1, §2

[3] = molecular target: T1, soluble human FcRn (complex of FcRn and …); test: Biacore steady-state, antibody immobilized, pH 7.4, 25C; pH 7.4
Description: (§3) The antibodies were tested as a test substance after direct immobilization onto Series S Sensor Chip CM5. Using an amino-coupling kit according to the supplier's instruction manual, the antibodies were immobilized onto Sensor Chip so as to secure an immobilization amount of 500 RU. The running buffer used was 50 mmol/l Na-phosphate/150 mmol/l NaCl containing 0.05% (v/v %) Surfactant P20 (pH 6.0).
(§4) With the prepared sensor chips, assay was carried out using as a running buffer, 50 mmol/l Na-phosphate/150 mmol/l NaCl containing 0.05% Surfactant P20 (pH 6.0) or 50 mmol/l Na-phosphate/150 mmol/l NaCl containing 0.05% Surfactant P20 (pH 7.4). Assays were carried out exclusively at 25 degrees C. The diluted human FcRn solutions and running buffer as a reference solution were injected at a flow rate of 5 microliter/min for ten minutes to allow for human FcRn to interact with the antibody on the chip. Next, the running buffer was injected at a flow rate of 5 microliter/min for one minute to monitor the dissociation of FcRn. […]
(§5) The assay results were analyzed using Biacore T100 Evaluation Software (Ver. 2.0.1). By a steady-state affinity method, the dissociation constant (KD) was calculated from the assay results at six different FcRn concentrations.

[4] = molecular target: T1, soluble human FcRn (complex of FcRn and …); test: Biacore steady-state, antibody immobilized, pH 6.0, 25C; pH 6.0
Description: as §3, §4, §5

[5] = molecular target: T1, soluble human FcRn (complex of FcRn and …); test: Biacore pH 7.0
Description: The binding between antibody and human FcRn was kinetically analyzed using Biacore T100 (GE Healthcare). […] An appropriate amount of protein L (ACTIGEN) was immobilized onto Sensor chip CM4 (GE Healthcare) by the amino coupling method, and the chip was allowed to capture an antibody of interest. Then, diluted FcRn solutions and running buffer (as a reference solution) were injected to allow human FcRn to interact with the antibody captured on the sensor chip. The running buffer used comprised 50 mmol/l sodium phosphate, 150 mmol/l NaCl, and 0.05% (w/v) Tween20 (pH 7.0). FcRn was diluted using each buffer. The chip was regenerated using 10 mmol/l glycine-HCl (pH 1.5). Assays were carried out exclusively at 25 degrees C. The association rate constant ka (1/Ms) and dissociation rate constant kd (1/s), both of which are kinetic parameters, were calculated based on the sensorgrams obtained in the assays, and KD (M) of each antibody for human FcRn was determined from these values. Each parameter was calculated using Biacore T100 Evaluation Software (GE Healthcare).

[6] = molecular target: T1, soluble human FcRn (complex of FcRn and …); test: Biacore steady-state, antibody immobilized, pH 6.0, 25C
Description: as §3, §4, §5

[7] = molecular target: T1, soluble human FcRn (complex of FcRn and …); test: Biacore steady-state, antibody immobilized, pH 7.4, 25C
Description: as §3, §4, §5

- Kd [3]: 36.6 µM
- Kd [4]: 0.32 µM
B2: Fv4-IgG1-v1 (antibody)
heavy: QVQLQESGPGLVKPSETLSLTCAVSGHSISHDHAWSWVRQPPGEGLEWIGFISYSGITNYNPSLQGRVTISRDNSKNTLYLQMNSLRAEDTAVYYCARSLARTTAMDYWGEGTLVTVSSASTKGPSVFPLAPSSKSTSGGTAALGCLVKDYFPEPVTVSWNSGALTSGVHTFPAVLQSSGLYSLSSVVTVPSSSLGTQTYICNVNHKPSNTKVDKKVEPKSCDKTHTCPPCPAPELLGGPSVFLFPPKPKDTLYITREPEVTCVVVDVSHEDPEVKFNWYVDGVEVHNAKTKPREEQYNSTYRVVSVLTVLHQDWLNGKEYKCKVSNKALPAPIEKTISKAKGQPREPQVYTLPPSRDELTKNQVSLTCLVKGFYPSDIAVEWESNGQPENNYKTTPPVLDSDGSFFLYSKLTVDKSRWQQGNVFSCSVMHEALHNHYTQKSLSLSP
light: DIQMTQSPSSLSASVGDSVTITCQASTDISSHLNWYQQKPGKAPELLIYYGSHLLSGVPSRFSGSGSGTDFTFTISSLEAEDAATYYCGQGNRLPYTFGQGTKVEIERTVAAPSVFIFPPSDEQLKSGTASVVCLLNNFYPREAKVQWKVDNALQSGNSQESVTEQDSKDSTYSLSSTLTLSKADYEKHKVYACEVTHQGLSSPVTKSFNRGEC
notes: copies: 2 + 2

- Kd [5]: 0.025 µM
B3: IgG1-F455 (antibody)
heavy: QVQLQESGPGLVKPSETLSLTCAVSGHSISHDHAWSWVRQPPGEGLEWIGFISYSGITNYNPSLQGRVTISRDNSKNTLYLQMNSLRAEDTAVYYCARSLARTTAMDYWGEGTLVTVSSASTKGPSVFPLAPSSKSTSGGTAALGCLVKDYFPEPVTVSWNSGALTSGVHTFPAVLQSSGLYSLSSVVTVPSSSLGTQTYICNVNHKPSNTKVDKKVEPKSCDKTHTCPPCPAPELLGGPSVFLFPPKPKDTLMISRTVEVTCVVVDVSHEDPEVKFNWYVDGVEVHNAKTKPREEQYNSTYRVVSVLQVLHQDWLNGKEYKCKVSNKALPAPIEKTISKAKGQPREPQVYTLPPSRDELTKNQVSLTCLVKGFYPSDIAVEWESNGQPENNYKTTPPVLDSDGSFFLYSKLTVDKSRWQQGNVFSCSVYHEALHYHYTQKSLSLSP
light: not shown
notes: copies: 2 + 2

Further lines, the binder ahead of its results:

B1: VH3/L (WT)-M73 (antibody)
heavy: QVQLQESGPGLVKPSETLSLTCAVSGHSISHDHAWSWVRQPPGEGLEWIGFISYSGITNYNPSLQGRVTISRDNSKNTLYLQMNSLRAEDTAVYYCARSLARTTAMDYWGEGTLVTVSSASTKGPSVFPLAPSSKSTSGGTAALGCLVKDYFPEPVTVSWNSGALTSGVHTFPAVLQSSGLYSLSSVVTVPSSNFGTQTYTCNVDHKPSNTKVDKTVERKSCVECPPCPAPPVAGPSVFLFPPKPKDTLMISRTPEVTCVVVDVSQEDPEVQFNWYVDGVEVHNAKTKPREEQFNSTFRVVSVLTVVHQDWLNGKEYKCKVSNKGLPAPIEKTISKTKGQPREPQVYTLPPSQEEMTKNQVSLTCLVKGFYPSDIAVEWESNGQPENNYKTTPPMLDSDGSFFLYSKLTVDKSRWQEGNVFSCSVMHEALHAHYTQKSLSLSP
light: not shown
notes: copies: 2 + 2
- Kd [1]: 14 µM
- Kd [2]: 14 µM

B4: Fv4-IgG1-v2 (antibody)
heavy: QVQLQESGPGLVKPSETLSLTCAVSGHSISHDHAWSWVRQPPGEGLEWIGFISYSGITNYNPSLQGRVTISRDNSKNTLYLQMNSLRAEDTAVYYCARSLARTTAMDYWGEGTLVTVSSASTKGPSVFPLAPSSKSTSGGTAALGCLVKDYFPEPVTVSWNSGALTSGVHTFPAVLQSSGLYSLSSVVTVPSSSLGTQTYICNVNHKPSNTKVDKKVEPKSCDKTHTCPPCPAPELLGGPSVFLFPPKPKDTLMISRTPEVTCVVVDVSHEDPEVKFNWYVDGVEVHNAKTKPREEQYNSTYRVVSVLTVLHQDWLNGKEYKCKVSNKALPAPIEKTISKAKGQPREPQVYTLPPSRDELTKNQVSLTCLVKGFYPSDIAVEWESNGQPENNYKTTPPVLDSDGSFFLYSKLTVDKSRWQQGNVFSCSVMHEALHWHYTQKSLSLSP
light: DIQMTQSPSSLSASVGDSVTITCQASTDISSHLNWYQQKPGKAPELLIYYGSHLLSGVPSRFSGSGSGTDFTFTISSLEAEDAATYYCGQGNRLPYTFGQGTKVEIERTVAAPSVFIFPPSDEQLKSGTASVVCLLNNFYPREAKVQWKVDNALQSGNSQESVTEQDSKDSTYSLSSTLTLSKADYEKHKVYACEVTHQGLSSPVTKSFNRGEC
notes: copies: 2 + 2
- Kd [6]: 0.11 µM
- Kd [7]: 11 µM
